Positions count from the first letter of the chain named.
T1: biotinylated recombinant human trimeric ARG1 enzyme (Avi-huARG1-His10) (human, UniProt P05089 1-322, biotinylated in HTRF and streptavidin BLI assays)
T1 construct: also called Human ARG1; recombinant ARG1
T1 sequence: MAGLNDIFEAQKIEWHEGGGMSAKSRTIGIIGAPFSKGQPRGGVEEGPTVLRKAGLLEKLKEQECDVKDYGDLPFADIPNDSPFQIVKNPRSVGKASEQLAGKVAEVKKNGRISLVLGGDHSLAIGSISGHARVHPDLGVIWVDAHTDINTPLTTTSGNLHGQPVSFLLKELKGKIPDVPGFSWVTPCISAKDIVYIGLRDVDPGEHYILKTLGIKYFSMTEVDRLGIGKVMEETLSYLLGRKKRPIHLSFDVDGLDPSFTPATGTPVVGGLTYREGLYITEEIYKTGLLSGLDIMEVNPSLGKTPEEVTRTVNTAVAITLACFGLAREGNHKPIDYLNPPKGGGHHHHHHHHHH

T2: biotinylated recombinant human trimeric ARG2 enzyme (Avi-huARG2-His10) (human, UniProt P78540 23-354, biotinylated)
T2 construct: also called avi-Arg2-His10; bio-ARG2
T2 chain: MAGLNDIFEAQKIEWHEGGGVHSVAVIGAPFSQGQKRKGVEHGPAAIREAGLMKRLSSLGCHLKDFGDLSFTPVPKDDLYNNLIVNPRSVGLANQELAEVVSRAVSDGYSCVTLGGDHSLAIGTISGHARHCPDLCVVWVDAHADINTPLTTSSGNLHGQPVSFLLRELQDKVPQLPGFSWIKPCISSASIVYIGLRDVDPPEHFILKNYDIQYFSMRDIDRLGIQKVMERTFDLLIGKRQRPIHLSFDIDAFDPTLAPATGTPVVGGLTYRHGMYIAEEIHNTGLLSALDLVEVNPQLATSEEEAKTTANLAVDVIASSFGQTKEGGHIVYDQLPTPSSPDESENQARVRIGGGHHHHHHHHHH

T3: biotinylated recombinant cynomolgus monkey trimeric ARG2 enzyme (Avi-cynoARG2-His10) (cynomolgus monkey, UniProt P78540 23-354 (human entry), biotinylated)
T3 construct: also called cynomolgus ARG2
T3 chain: T2 chain with A189P, R231Q, H273E, K325R, D333G

B1: C0021061 Fab (Fab, V domains shown)
VH: EVQLLESGGGLVQPGGSLRLSCAASGFTFSSYAMSWVRQAPGKGLEWVSAKPTDAGSTYYADSVKGRFTISRDNSKNTLYLQMNSLRAEDTAVYYCARLRADLGLYMDLWGRGTLVTVSS
VL: QSVLTQPPSVSAAPGQKVTISCSGSSSNIGNHYVSWYQQLPGTAPKLLIYNTVYPKSGIPDRFSGSKSGTSATLGITGLQTGDEADYYCGTWDSSLSALVFGGGTKLTVL
notes: Human Fab
B2: C0021022 Fab (Fab, V domains shown)
VH: EVQLLESGGGLVQPGGSLRLSCAASGFTFSSYAMSWVRQAPGKGPEWVSAISGFSPYYADSVKGRFTISRDNSKNTLYLQMNSLRAEDTAVYYCARLRADLGLYMDLWGRGTLVTVSS
VL: B1 VL with N51D, T52N, V53S, Y54E, P55R, K56P
notes: Human Fab
B3: C0021128 Fab (Fab, V domains shown)
VH: EVQLLESGGGLVQPGGSLRLSCAASGFTFQYEVAAWVRQAPGKGLEWVSAISGPIPKGYYADSVKGRFTISRDNSKNTLYLQMNSLRAEDTAVYYCARLRADLGLYMDLWGRGTLVTVSS
VL: B1 VL with N51D, T52N, V53A, Y54I, P55E, K56S, E84G, S95N
notes: Human Fab
B4: C0021139 Fab (Fab, V domains shown)
VH: B3 VH with E32D, V33Y, A34Q, A35V, P54S, I55G, P56G, K57S, G58T
VL: B1 VL with N51D, T52N, V53S, Y54E, P55R, K56T, S94E, S95L, L96T, A98N
notes: Human Fab; also called LO C0021139 Fab
B5: C0021092 Fab (Fab, V domains shown)
VH: B1 VH with S31R, K51H, P52T, T53H, D54S, A55P
VL: B1 VL with T52S, Y54A, P55R, K56P
notes: Human Fab
B6: C0021065 Fab (Fab, V domains shown)
VH: B2 VH with K74R
VL: B1 VL with N51D, V53D, Y54H, P55M, K56A
notes: Human Fab
B7: C0021133 Fab (Fab, V domains shown)
VH: B3 VH with Q30R, E32D, V33H, A34H, A35V, P54S, I55G, P56G, K57S, G58T
VL: B1 VL with I20V, N51D, V53T, Y54V, P55L, K56S, S94E, S95L, L96T, A98N
notes: Human Fab

Each binder was assayed against T1, biotinylated recombinant human trimeric … (assay: BLI (OctetRED), His-tagged ligand on anti-His surface).
Experimental: The binding of affinity-matured antibodies to human ARG1 was also tested on the OctetRED system using a screening assay which stably captures […] as the ligand on an anti-His surface. The Fabs were typically tested in an analyte range of 1.8 to 120 nM, with an association time of 5 minutes and a dissociation time of 10 minutes. Sensors were regenerated using 10 mM glycine pH 1.5 after each cycle.

binding result | Binder
no binding (tested: 1.8 to 120 nM Fab) | B1
no binding (tested: 1.8 to 120 nM Fab) | B2
no binding (tested: 1.8 to 120 nM Fab) | B3
no binding (tested: 1.8 to 120 nM Fab) | B4
no binding (tested: 1.8 to 120 nM Fab) | B5
no binding (tested: 1.8 to 120 nM Fab) | B6
no binding (tested: 1.8 to 120 nM Fab) | B7

Biological target: T2, biotinylated recombinant human trimeric …
Assay: BLI (OctetRED), biotinylated ARG2 on streptavidin, Fab as analyte
Experimental: (§1) An Octet Kinetics Buffer (PBS containing 0.01% BSA and 0.002% Tween20) is typically used as the diluent buffer for the analyte samples and as the flow buffer during the dissociation phase. The experimental data is recorded over time as shift in interference pattern (nm) over time, which is directly proportional to the optical thickness at the biosensor tip, which in turn is an approximate measure of the mass of analyte bound. The proprietary Octet Data Analysis software package can then be used to process data and fit binding models to the data sets. Returned association (kₐ, M⁻¹ s⁻¹) and dissociation (kd, s⁻¹) rate constants allow calculation of dissociation (KD, M) affinity constants.
(§2) Typically, an analyte titration range of 1.8 to 120 nM was used.

Kd [nM] | koff [s⁻¹] | kon [M⁻¹ s⁻¹] | Binder
1.3 | 0.000351 | 271000 | B1
2.73 | 0.00112 | 412000 | B2
2.53 | 0.000674 | 266000 | B3
4.41 | 0.000871 | 198000 | B4
2.69 | 0.000755 | 280000 | B5
1.62 | 0.000665 | 409000 | B6
2.05 | 0.000449 | 219000 | B7

Biological target: T3, biotinylated recombinant cynomolgus …
Assay: BLI (OctetRED), biotinylated cyno ARG2 on streptavidin, Fab as analyte
Experimental: as §1, §2

Kd [nM] | koff [s⁻¹] | kon [M⁻¹ s⁻¹] | Binder
0.953 | 0.000296 | 310000 | B1
1.66 | 0.00117 | 706000 | B2
1.77 | 0.000771 | 437000 | B3
2.63 | 0.000724 | 275000 | B4
2.05 | 0.000726 | 354000 | B5
1.27 | 0.000782 | 617000 | B6
1.67 | 0.000549 | 328000 | B7
